This is an account of results in US20110052591A1.

This test concerns the target TSH receptor on mouse alveolar macrophage AM cells (AMJ2-C8) (mouse) (UniProt P47750). The test can be described thus: cell-based or functional assay.
Sequence of UniProt P47750 (P47750 22-764): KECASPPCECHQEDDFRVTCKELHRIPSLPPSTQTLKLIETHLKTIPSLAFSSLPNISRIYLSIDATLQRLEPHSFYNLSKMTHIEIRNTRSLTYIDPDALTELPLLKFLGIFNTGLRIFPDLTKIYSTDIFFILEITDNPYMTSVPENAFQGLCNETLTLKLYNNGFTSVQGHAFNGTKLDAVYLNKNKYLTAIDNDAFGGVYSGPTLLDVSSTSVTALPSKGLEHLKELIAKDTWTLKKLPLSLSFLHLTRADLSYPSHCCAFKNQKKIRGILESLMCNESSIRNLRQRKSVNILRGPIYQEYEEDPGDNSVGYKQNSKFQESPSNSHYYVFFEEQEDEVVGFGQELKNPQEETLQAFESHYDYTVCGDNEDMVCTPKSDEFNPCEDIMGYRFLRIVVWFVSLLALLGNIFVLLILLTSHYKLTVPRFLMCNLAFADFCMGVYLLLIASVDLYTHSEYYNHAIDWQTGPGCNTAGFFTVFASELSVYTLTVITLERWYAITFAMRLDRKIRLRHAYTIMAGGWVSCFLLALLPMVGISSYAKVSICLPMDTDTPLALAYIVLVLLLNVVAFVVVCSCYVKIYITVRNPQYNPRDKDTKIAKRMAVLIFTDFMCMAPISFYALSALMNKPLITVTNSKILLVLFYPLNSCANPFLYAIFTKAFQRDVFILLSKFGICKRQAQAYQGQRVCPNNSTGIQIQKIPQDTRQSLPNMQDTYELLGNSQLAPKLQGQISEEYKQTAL

On to “recombinant mouse novel TSHβ splice variant (from UniProt P12656 55-138) (ligand)”, for which the cAMP response of AM cells; concentration of peak activity was 1000 nM.

For the substance “recombinant mouse native TSHβ (from UniProt P12656 21-138) (ligand)”, the cAMP response of AM cells; concentration of peak activity amounted to 0.1 nM.
